Here are results for one protein from doi:10.1101/2024.03.22.585941 (bioRxiv, 2024).

The stoichiometry N is a count of units in the complex or per binding partner.

This series concerns the molecule itself. The series is described as follows: SEC. Background: SEC sorts molecules by how far they enter the pores of the column.

B1: LexAPaS125A, full-length P. aeruginosa LexA carrying the S125A mutation in the catalytic dyad (natural protein)
chain: MQKLTPRQAEILSFIKRCLEDHGFPPTRAEIAQELGFKSPNAAEEHLKALARKGAIEMTPGASRGIRIPGFEPHAANDDEGLPVIGRVAAGAPILAEQNIEESCRINPAFFNPRADYLLRVRGMAMKDIGILDGDLLAVHVTREARNGQVVVARIGEEVTVKRFKREGSKVWLLAENPEFAPIEVDLKEQELIIEGLSVGVIRR
B1: the “stoichiometry N” value was 2.
